The record followed here is US20230212587A1, “Mutant Hydroxyphenylpyruvate Dioxygenase Polypeptide, Encoding Gene Thereof and Use Therefor” (Beijing Dabeinong Biotechnology Co., Ltd., priority 2019, published 2023).

This assay has as its system Arabidopsis thaliana T1 plants. Nature of the assay: Topramezone tolerance of transgenic Arabidopsis thaliana T1 plants (pesticide damage grade by bleached leaf area, score, resistance evaluation). Format: in vivo. To be noted: HPPDs from ecotypes of Triticum aestivum; for Classification and statistics of pesticide damage grade: Grade 0 / Classification and statistics of pesticide damage grade: Grade 1 / Classification and statistics of pesticide damage grade: Grade 2 / Classification and statistics of pesticide damage grade: Grade 3: number of plants. In a few lines: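 Eighteen days after sowing, wild-type and HPPD-transgenic T1 Arabidopsis receive a topramezone spray at 1×, 2× or 4× field rate (25–100 g ai/ha) or water. Seven days later each plant is graded by its proportion of bleached leaf area.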

B1: TaHPPD5-02: native HPPD of Triticum aestivum ecotype 5, UniProt A0A3B6NNK0, SEQ ID NO: 201 (protein, listed as Triticum aestivum)
chain: MPPTPTTPAATGAAAVTPEHARPRRMVRFNPRSDRFHTLAFHHVEFWCADAASAAGRFAFALGAPLAARSDLSTGNSVHASQLLRSGNLAFLFTAPYANGCDAATASLPSFSADAARQFSADHGLAVRSIALRVADAAEAFRASVDGGARPAFSPVDLGRGFGFAEVELYGDVVLRFVSHPDGRDVPFLPGFEGVSNPDAVDYGLTRFDHVVGNVPELAPAAAYVAGFTGFHEFAEFTTEDVGTAESGLNSMVLANNSEGVLLPLNEPVHGTKRRSQIQTFLEHHGGSGVQHIAVASSDVLRTLREMRARSAMGGFDFLPPPLPKYYEGVRRIAGDVLSEAQIKECQELGVLVDRDDQGVLLQIFTKPVGDRPTLFLEMIQRIGCMEKDELFKSIEDYEKSLEAKQSAAVQGS
modifications: TaHPPD5 Amino Acid Sequence
As for B1, where the note is “topramezone 25 g ai/ha (1x)”, the Resistance evaluation result is recorded as “non-resistant (non-resistant plants (scores 68-100))”; the Scores turned out to be 83; the “Classification and statistics of pesticide damage grade: Grade 0” value (“Classification and statistics … Grade 0” below) is listed as 0; the “Classification and statistics of pesticide damage grade: Grade 1” value (shortened to “Classification and statistics … Grade 1”) was 0. For the setting “topramezone 25 g ai/ha (1x)”, the “Classification and statistics of pesticide damage grade: Grade 2” value (“Classification and statistics … Grade 2” for short) was 8; the “Classification and statistics of pesticide damage grade: Grade 3” value (“Classification and statistics … Grade 3” below) was 8. Under “topramezone 100 g ai/ha (4x)”, the Resistance evaluation entry is listed as “non-resistant (non-resistant plants (scores 68-100))”; the Scores is given as 96; the “Classification and statistics … Grade 0” value is given as 0; the “Classification and statistics … Grade 1” value stood at 0. In addition, under “topramezone 100 g ai/ha (4x)”, the “Classification and statistics … Grade 2” value worked out at 2; the “Classification and statistics … Grade 3” value came out at 14.

B2: TaHPPD5m-F372A-02: Triticum aestivum ecotype 5 HPPD mutant F372A, SEQ ID NO: 204 (protein)
chain: MPPTPTTPAATGAAAVTPEHARPRRMVRFNPRSDRFHTLAFHHVEFWCADAASAAGRFAFALGAPLAARSDLSTGNSVHASQLLRSGNLAFLFTAPYANGCDAATASLPSFSADAARQFSADHGLAVRSIALRVADAAEAFRASVDGGARPAFSPVDLGRGFGFAEVELYGDVVLRFVSHPDGRDVPFLPGFEGVSNPDAVDYGLTRFDHVVGNVPELAPAAAYVAGFTGFHEFAEFTTEDVGTAESGLNSMVLANNSEGVLLPLNEPVHGTKRRSQIQTFLEHHGGSGVQHIAVASSDVLRTLREMRARSAMGGFDFLPPPLPKYYEGVRRIAGDVLSEAQIKECQELGVLVDRDDQGVLLQIATKPVGDRPTLFLEMIQRIGCMEKDELFKSIEDYEKSLEAKQSAAVQGS
modifications: TaHPPD5m-F372A Amino Acid Sequence
Consider B2, for which, under “topramezone 25 g ai/ha (1x)”, the Resistance evaluation entry was “highly resistant (highly resistant plants (scores 0-15))”; the Scores worked out at 0; the “Classification and statistics … Grade 0” value stood at 16; the “Classification and statistics … Grade 1” value is on record as 0. Further, under “topramezone 25 g ai/ha (1x)”, the “Classification and statistics … Grade 2” value is listed as 0; the “Classification and statistics … Grade 3” value is listed as 0. Besides, for the setting “topramezone 100 g ai/ha (4x)”, the Resistance evaluation entry was “moderately resistant (moderately resistant plants (scores 16-33))”; the Scores stood at 23; the “Classification and statistics … Grade 0” value is reported as 6; the “Classification and statistics … Grade 1” value is 9. Also, where the note is “topramezone 100 g ai/ha (4x)”, the “Classification and statistics … Grade 2” value amounted to 1; the “Classification and statistics … Grade 3” value was found to be 0.

B3: TaHPPD7-02: native HPPD of Triticum aestivum ecotype 7, UniProt A7WK82, SEQ ID NO: 213 (protein, listed as Triticum aestivum)
chain: MPPTPTTPAATGAAAAAAVTPEHARPRRMVRFNPRSDRFHTLAFHHVEFWCADAASAAGRFAFALGAPLAARSDLSTGNSVHASQLLRSGNLAFLFTAPYANGCDAATASLPSFSADAARRFSADHGLAVRSIALRVADAAEAFRASVDGGARPAFSPVDLGRGFGFAEVELYGDVVLRFVSHPDGTDVPFLPGFEGVSNPDAVDYGLTRFDHVVGNVPELAPAAAYVAGFTGFHEFAEFTTEDVGTAESGLNSMVLANNSEGVLLPLNEPVHGTKRRSQIQTFLEHHGGPGVQHIAVASSDVLRTLREMRARSAMGGFDFLPPPLPKYYEGVRRIAGDVLSEAQIKECQELGVLVDRDDQGVLLQIFTKPVGDRPTCSWR
modifications: TaHPPD7 Amino Acid Sequence
Regarding B3, for the setting “topramezone 25 g ai/ha (1x)”, the Resistance evaluation entry is listed as “non-resistant (non-resistant plants (scores 68-100))”; the Scores is listed as 100; the “Classification and statistics … Grade 0” value turned out to be 0; the “Classification and statistics … Grade 1” value worked out at 0. In addition, where the note is “topramezone 25 g ai/ha (1x)”, the “Classification and statistics … Grade 2” value was 0; the “Classification and statistics … Grade 3” value is 16. Also, where the note is “topramezone 100 g ai/ha (4x)”, the Resistance evaluation result is on record as “non-resistant (non-resistant plants (scores 68-100))”; the Scores came to 100; the “Classification and statistics … Grade 0” value amounted to 0; the “Classification and statistics … Grade 1” value is recorded as 0. Besides, for the setting “topramezone 100 g ai/ha (4x)”, the “Classification and statistics … Grade 2” value was found to be 0; the “Classification and statistics … Grade 3” value was determined as 16.

B4: TaHPPD7m-F372A-02: Triticum aestivum ecotype 7 HPPD mutant F372A, SEQ ID NO: 216 (protein)
chain: MPPTPTTPAATGAAAAAAVTPEHARPRRMVRFNPRSDRFHTLAFHHVEFWCADAASAAGRFAFALGAPLAARSDLSTGNSVHASQLLRSGNLAFLFTAPYANGCDAATASLPSFSADAARRFSADHGLAVRSIALRVADAAEAFRASVDGGARPAFSPVDLGRGFGFAEVELYGDVVLRFVSHPDGTDVPFLPGFEGVSNPDAVDYGLTRFDHVVGNVPELAPAAAYVAGFTGFHEFAEFTTEDVGTAESGLNSMVLANNSEGVLLPLNEPVHGTKRRSQIQTFLEHHGGPGVQHIAVASSDVLRTLREMRARSAMGGFDFLPPPLPKYYEGVRRIAGDVLSEAQIKECQELGVLVDRDDQGVLLQIATKPVGDRPTCSWR
modifications: TaHPPD7m-F372A Amino Acid Sequence
Take B4: under “topramezone 25 g ai/ha (1x)”, the Resistance evaluation entry is “highly resistant (highly resistant plants (scores 0-15))”; the Scores was 8; the “Classification and statistics … Grade 0” value is 12; the “Classification and statistics … Grade 1” value is on record as 4. For the setting “topramezone 25 g ai/ha (1x)”, the “Classification and statistics … Grade 2” value was 0; the “Classification and statistics … Grade 3” value came to 0. In addition, for the setting “topramezone 100 g ai/ha (4x)”, the Resistance evaluation entry was “moderately resistant (moderately resistant plants (scores 16-33))”; the Scores is recorded as 21; the “Classification and statistics … Grade 0” value is reported as 6; the “Classification and statistics … Grade 1” value is 10. Further, for the setting “topramezone 100 g ai/ha (4x)”, the “Classification and statistics … Grade 2” value is listed as 0; the “Classification and statistics … Grade 3” value is recorded as 0.

B5: TaHPPD6-02: native HPPD of Triticum aestivum ecotype 6, UniProt A0A3B5YPS5, SEQ ID NO: 207 (protein, listed as Triticum aestivum)
chain: MVRFNPGSDRFHTLAFHHIEFWCTDAASADGRFAFSLGAPLAARSDLSTGNSTHASQLLRPGSLAFLFTAPYANGCIFSVDAARRFFADHGLAVRSVALRVADAAKAFRASVDGGARPAFAPVDLGRGFGFAEVKLYGDVVLRFVSHPDGTDVPFLPGLFEGVSNPGAVHYGLTRFDHIVGNVPELAPAAAYVAGLTGFHEFAEFTTEDVGTAQSGLNSVVLANTSEGVPLLLNEPVHGTKRRRQIQTFLEHHGGPGVQHIAVASSEVFRTLREMHARSSMGGFDFLPPPLPKYYEGVRRLAGDVLSEAQIKECQELGVLVNRDDQGVLLQIFTKPVGDRPTFFLEMIQRIGCMEKDERGEEYQKGGCGGFGKGNISELFKSIEDYEKSLEAKQSAAVQGSYI
modifications: TaHPPD6 Amino Acid Sequence
Consider B5, for which, where the note is “topramezone 25 g ai/ha (1x)”, the Resistance evaluation result is recorded as “non-resistant (non-resistant plants (scores 68-100))”; the Scores turned out to be 88; the “Classification and statistics … Grade 0” value is recorded as 0; the “Classification and statistics … Grade 1” value is reported as 0. For the setting “topramezone 25 g ai/ha (1x)”, the “Classification and statistics … Grade 2” value is listed as 6; the “Classification and statistics … Grade 3” value was 10. Also, for the setting “topramezone 100 g ai/ha (4x)”, the Resistance evaluation result is given as “non-resistant (non-resistant plants (scores 68-100))”; the Scores is given as 96; the “Classification and statistics … Grade 0” value is given as 0; the “Classification and statistics … Grade 1” value stood at 0. Besides, for the setting “topramezone 100 g ai/ha (4x)”, the “Classification and statistics … Grade 2” value is given as 2; the “Classification and statistics … Grade 3” value is 14.

B6: TaHPPD6m-F372A-02: Triticum aestivum ecotype 6 HPPD mutant F372A, SEQ ID NO: 210 (protein)
chain: MVRFNPGSDRFHTLAFHHIEFWCTDAASADGRFAFSLGAPLAARSDLSTGNSTHASQLLRPGSLAFLFTAPYANGCIFSVDAARRFFADHGLAVRSVALRVADAAKAFRASVDGGARPAFAPVDLGRGFGFAEVKLYGDVVLRFVSHPDGTDVPFLPGLFEGVSNPGAVHYGLTRFDHIVGNVPELAPAAAYVAGLTGFHEFAEFTTEDVGTAQSGLNSVVLANTSEGVPLLLNEPVHGTKRRRQIQTFLEHHGGPGVQHIAVASSEVFRTLREMHARSSMGGFDFLPPPLPKYYEGVRRLAGDVLSEAQIKECQELGVLVNRDDQGVLLQIATKPVGDRPTFFLEMIQRIGCMEKDERGEEYQKGGCGGFGKGNISELFKSIEDYEKSLEAKQSAAVQGSYI
modifications: TaHPPD6m-F372A Amino Acid Sequence
On to B6, for which, for the setting “topramezone 25 g ai/ha (1x)”, the Resistance evaluation result is on record as “highly resistant (highly resistant plants (scores 0-15))”; the Scores was 0; the “Classification and statistics … Grade 0” value worked out at 16; the “Classification and statistics … Grade 1” value worked out at 0. Further, where the note is “topramezone 25 g ai/ha (1x)”, the “Classification and statistics … Grade 2” value was 0; the “Classification and statistics … Grade 3” value turned out to be 0. Further, under “topramezone 100 g ai/ha (4x)”, the Resistance evaluation entry is “highly resistant (highly resistant plants (scores 0-15))”; the Scores is 2; the “Classification and statistics … Grade 0” value was 15; the “Classification and statistics … Grade 1” value was found to be 1. Besides, for the setting “topramezone 100 g ai/ha (4x)”, the “Classification and statistics … Grade 2” value amounted to 0; the “Classification and statistics … Grade 3” value was determined as 0.
